B1: Ras-related protein Rab-9A (Mus musculus), Q9R0M6 (parent)
chain: MAGKSSLFKIILLGDGGVGKSSLMNRYVTNKFDSQLFHTIGVEFLNKDLEVDGHFVTMQIWDTAGQERFRSLRTPFYRGSDCCLLTFSVDDSQSFQNLSNWKKEFIYYADVKEPESFPFVILGNKTDIKERQVSTEEAQAWCKDNGDYPYFETSAKDSTNVAAAFEEAVRRILATEDRSEHLIQTDTVNLHRKPKPNSSCC
partner: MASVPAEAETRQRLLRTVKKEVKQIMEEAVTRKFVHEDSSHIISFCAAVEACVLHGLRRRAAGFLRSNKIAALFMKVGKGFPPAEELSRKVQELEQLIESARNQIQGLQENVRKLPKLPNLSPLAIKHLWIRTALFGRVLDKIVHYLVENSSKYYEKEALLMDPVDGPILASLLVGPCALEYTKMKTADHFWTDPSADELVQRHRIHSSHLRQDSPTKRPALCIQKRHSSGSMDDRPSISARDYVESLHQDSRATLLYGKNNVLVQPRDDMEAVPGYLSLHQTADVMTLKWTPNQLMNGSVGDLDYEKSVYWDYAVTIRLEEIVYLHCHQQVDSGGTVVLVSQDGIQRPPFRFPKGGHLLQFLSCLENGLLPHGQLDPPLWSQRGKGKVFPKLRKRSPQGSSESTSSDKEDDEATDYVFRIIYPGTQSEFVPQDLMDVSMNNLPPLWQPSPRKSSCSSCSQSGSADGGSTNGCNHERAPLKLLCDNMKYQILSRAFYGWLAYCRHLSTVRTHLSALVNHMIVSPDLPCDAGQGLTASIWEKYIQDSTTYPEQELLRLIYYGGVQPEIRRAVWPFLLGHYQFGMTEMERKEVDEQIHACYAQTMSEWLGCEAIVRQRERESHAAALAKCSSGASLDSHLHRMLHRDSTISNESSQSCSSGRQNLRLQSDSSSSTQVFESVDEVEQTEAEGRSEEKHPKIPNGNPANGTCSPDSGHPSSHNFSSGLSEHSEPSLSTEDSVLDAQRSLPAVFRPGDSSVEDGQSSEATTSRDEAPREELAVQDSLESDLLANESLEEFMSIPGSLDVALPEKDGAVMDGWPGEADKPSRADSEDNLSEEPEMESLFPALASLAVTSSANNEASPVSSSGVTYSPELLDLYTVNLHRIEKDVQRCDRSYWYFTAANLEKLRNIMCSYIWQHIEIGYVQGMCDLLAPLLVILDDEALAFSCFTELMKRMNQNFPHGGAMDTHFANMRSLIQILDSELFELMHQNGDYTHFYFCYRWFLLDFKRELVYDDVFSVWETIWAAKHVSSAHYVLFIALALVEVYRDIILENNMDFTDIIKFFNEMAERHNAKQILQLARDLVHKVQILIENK
B2: Small G protein signaling modulator 1 (Mus musculus), Q8BPQ7-1 (parent)
chain: B1 partner
partner: B1 chain

Variants of: B1
Settings: with Sgsm1, Q8BPQ7-1

Variant	effect of a mutation on the interaction
I40A	decreasing interaction strength
G41A	disrupting interaction strength
G41D	disrupting interaction strength
V42A	decreasing interaction strength
F76A	decreasing interaction strength
E43A	decreasing interaction strength
F44A	decreasing interaction strength
W61A	decreasing interaction strength

Variants of: B1
Settings: with Sgsm1, Q8BPQ7-1
Remark: another data set of the same source

Variant	effect of a mutation on the interaction
G41A	decreasing interaction strength
G41D	decreasing interaction strength
F69A	decreasing interaction strength
L72A	decreasing interaction strength

Variants of: B2
Settings: with rab9a_mouse Rab9a

Variant	effect of a mutation on the interaction
Y277A	disrupting interaction strength
M297A	disrupting interaction strength
N261A	disrupting interaction strength
N294A	disrupting interaction strength
L256A	disrupting interaction strength
K260A	disrupting interaction strength

Variants of: B2
Settings: with rab9a_mouse Rab9a
Remark: another data set of the same source

Variant	effect of a mutation on the interaction
M297A	decreasing interaction strength
L256A	decreasing interaction strength
K260A	decreasing interaction strength

Reference: IntAct's records for PubMed 25220469
